± gives the standard deviation of the averaged measurements.
Columns and labels:
[1] = tested on: VchCAST RNA-guided transposition machinery (E. coli BL21(DE3) host, lacZ target); test: relative integration efficiency (T-RL orientation) vs wild-type transposon end (log2 (normalized fold change)); transposon end mutated: left end; higher = more efficient transposition
Procedure, shortened: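 A T7-driven effector plasmid encoding a CRISPR array, tniQ-cas8-cas7-cas6 and tnsA-tnsB-tnsC was co-transformed into E. coli BL21(DE3) together with a pUC57 mini-transposon donor holding barcoded pools of 1549 left-end or 1849 right-end variants. Transformants were plated with 0.1 mM IPTG at 37°C for 18 h. Illumina sequencing of PCR-amplified input plasmids and genomic integration junctions gave barcode abundances, and relative integration efficiency is their output/input fold change, normalised to reference barcodes and log-transformed.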

[2] = tested on: VchCAST RNA-guided transposition machinery (E. coli BL21(DE3) host, lacZ target); test: relative integration efficiency (T-LR orientation) vs wild-type transposon end (log2 (normalized fold change)); transposon end mutated: left end; higher = more efficient transposition
Experimental: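 Pooled, barcoded VchCAST (Tn6677) mini-transposon donor libraries; each variable transposon-end sequence sits in a fixed pDonor mini-transposon context (10-bp barcode and cargo not included). Left- or right-end libraries were co-transformed with pEffector (TniQ-Cascade, TnsABC, lacZ crRNA, T7, 0.1 mM IPTG) into E. coli BL21(DE3) and grown 18 h at 37 C. T-LR and T-RL junction amplicons were sequenced; output/input barcode fold change was normalised to the mean of four wild-type barcodes and log2-transformed. Two biological replicates; zero-count/undetected variants carry floor values (-10 / -15), censored here. Barcode uncoupling by PCR recombination adds noise.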

Row | Sequence | relative integration efficiency (log2) [1] | relative integration efficiency (log2) [2]
1 | AATGTTGTTGATGCAACCATAAAGTGATATTTAAGCCGGCGGGCGCCGACTACCAGGCCAACACCCCACCAACGCGCGGTCGCGAGACACCCCACCAACGCCTGGTCGCGGGGGTGTCCGATCTGATTTCAGCAAAACTACTGCAGTAAGAA | -6.95 ± 1.1 | -5.38 ± 1
2 | AATGTTGTTGATGCAACCATAAAGTGATATTTACAACCATATATTGATATCTCACACAACCATAAGTTGATATTTTTGTGAATCGAGTATTTCAGCAAAACTACTGCAGTAAGAAAGTTACTTCGTGGTATGGGAGGATCAAGGAGCCAATA | -2.53 ± 0.78 | 3.33 ± 0.87
3 | AATGTTGTTGATGCAACCATAAAATGATAATTAATAATTATTTATAATCAGCAACTTAACCACAAAACAACCATAAAGTGATATTTAACAAAAGTTGGTATTCAACTATAAAATGTGAATCGAGTATTTCAGCAAAACTACTGCAGTAAGAA | -2.33 ± 0.95 | -0.635 ± 1
4 | AATGTTGTTGATGCAACCATAAAGTGATATATAATTATTTATAATCAGCAACTTAACCACAAAACAACCATATATTGATATCTCACAAAACAACCATAAGTTGATATTTTTGTGAATCGAGTATTTCAGCAAAACTACTGCAGTAAGAAAGT | -7.3 ± 1.5 | -4.68 ± 0.68
5 | AATGTTGTTGATGCAACCATAAAGTGATATTTAGCCGCTTCCGGGGCTGCCCTCTAAGCGCGAGCGCCAACCATATATTGATATCTCACAAAACAACCATAAGTTGATATTTTTGTGAATCGAGTATTTCAGCAAAACTACTGCAGTAAGAA | -3.92 ± 1.2 | -0.565 ± 0.97
6 | AATGTTGTTGATGCAACCATAAAGTGATATTTAATAATTATTTATAATCAGCAACTTAACCACAAAACAACCATATATTGATATCTCACAAAACAACCATAATGGTCGCGGGGGTGTCCGATCTGATTTCAGCAAAACTACTGCAGTAAGAA | -1.93 ± 0.81 | -1.31 ± 0.87
7 | AATGTTGTTGATGCAACCATAAGTTGATATTTTATAATTATTTATAATCAGCAACTTAACCACAAAACAACCATAAAGTGATATTTAACAAAAGTTGGTATTCAACTATAAAATGTGAATCGAGTATTTCAGCAAAACTACTGCAGTAAGAA | -2.4 ± 0.96 | -1.03 ± 1.1
8 | AATGTTGTTGATGCAACCATAAAGTGATATTTAACAACCATAAAGTGATATTTAACTTAACCACAAACAACCATATATTGATATCTCACAAAACAACCATAAGTTGATATTTTTGTGAATCGAGTATTTCAGCAAAACTACTGCAGTAAGAA | -2.56 ± 0.5 | 1.37 ± 1.1
9 | AATGTTGTTGATGCAACCATAAAGTGATATTTAATAATTATTTATAATCAGCAACTTAACCACAAAACAACCATATATTGATATCTCACAAAACAACCATAAGTTGATTGTGAATCGAGTATTTCAGCAAAACTACTGCAGTAAGAAAGTTA | -0.574 ± 0.38 | -0.858 ± 0.1
10 | AATGTTGTTGATGCAACCATAAAGTGATATTTATTGTGAGCGGATAACAATTGTGAGCGGATAACAACAACCATATATTGATATCTCACAAAACAACCATAAGTTGATATTTTTGTGAATCGAGTATTTCAGCAAAACTACTGCAGTAAGAA | -6.71 ± 0.35 | -6.162 ± 0.037
11 | AATGTTGTTGATGCAACCAGCCCTGTCGCGGGCCGCCGGCGGGCGCCGACTACCAGGCCAACACCCCACCAACGCGCGGTCGCGAGACACCCCACCAACGCCTGGTCGCGGGGGTGTCCGATCTGATTTCAGCAAAACTACTGCAGTAAGAA | < -10 | -9 ± 0.31
12 | AATGTTGTTGATGCAACCATAAAGTGATTAAATATAATTATTTATAATCAGCAACTTAACCACAAAACAACCATATATTGATTAGAGACAAAACAACCATAAGTTGATTAAAATGTGAATCGAGTATTTCAGCAAAACTACTGCAGTAAGAA | -2.17 ± 0.87 | -1.1 ± 0.76
13 | AATGTTGTTGATGCAACCATAAAGTGATATTTAATAATTATTTATAATCAGCAACTTAACCACAAAATGTGAATCGAGTATTTCAGCAAAACCAACCATATATTGATATCTCACAAAACAACCATAAGTTGATATTTTTACTGCAGTAAGAA | -4.28 ± 1 | -3.73 ± 1.1
14 | AATGTTGTTGATGTGTTGATGCAACCATAAAGTGATATTTAATAATTATTTATAATCAGCAACTTAACCACAAAACAACCATATATTGATATCTCACAAAACAACCATAAGTTGATATTTTTGTGAATCGAGTATTTCAGCAAAACTACTGC | -0.31 ± 0.015 | -0.829 ± 0.034
15 | AATGTTGTTGATGCAACCATAAAGTGATATTGCCGCCGGCGGGCGCCGACTACCAGGCCAACACCCCACCAACGCGCGGTCGCGAGACACCCCACCAACGCCTGGTCGCGGGGGTGTCCGATCTGATTTCAGCAAAACTACTGCAGTAAGAA | -7.14 ± 1.3 | -5.87 ± 0.86
16 | AATGTTGTTGATGCAACCATAAAGTGATATTTAATAATTATTTATAATCAGCAACTTAACCACAAAACAACCATATATTGATAGAGACACCCCACCAACGCCTGGTCGCGGGGGTGTCCGATCTGATTTCAGCAAAACTACTGCAGTAAGAA | -3.06 ± 1.2 | -1.28 ± 2
17 | AATGTTGTTGATGCAACCATAAAGTGATATTTCCGCCGGCGGGCGCCGACTACCAGGCCAACACCCCACCAACGCGCGGTCGCGAGACACCCCACCAACGCCTGGTCGCGGGGGTGTCCGATCTGATTTCAGCAAAACTACTGCAGTAAGAA | -6.65 ± 1.1 | -5 ± 1.2
18 | AATGTTGTTGATGCAACCATAAAGTGATATTTAATACGGCGGGCGCCGACTACCAGGCCAACACCCCACCAACGCGCGGTCGCGAGACACCCCACCAACGCCTGGTCGCGGGGGTGTCCGATCTGATTTCAGCAAAACTACTGCAGTAAGAA | -6.9 ± 1.3 | -4.75 ± 2
19 | AATGTTGTTGATGGTTGGTATTTCACTATAAATATAATTATTTATAATCAGCAACTTAACCACAAAAGTTGGTATATAACTATAGAGACAAAAGTTGGTATTCAACTATAAAATGTGAATCGAGTATTTCAGCAAAACTACTGCAGTAAGAA | -8.52 ± 0.29 | < -10
20 | AATGTTGTTGATGCAACCATAAAGTGATATTTAATAATTATTTCAACCATATATTGATATCTCACAAAACAACCATAAGTTGATATTTTTGTGAATCGAGTATTTCAGCAAAACTACTGCAGTAAGAAAGTTACTTCGTGGTATGGGAGGAT | -6.94 ± 1.9 | -3.12 ± 1.5
21 | AATGTTGTTGATGCAACCATAAAGTGATAGGGCCGCCGGCGGGCGCCGACTACCAGGCCAACACCCCACCAACGCGCGGTCGCGAGACACCCCACCAACGCCTGGTCGCGGGGGTGTCCGATCTGATTTCAGCAAAACTACTGCAGTAAGAA | -7.44 ± 1.6 | -5.19 ± 2.5
22 | AATGTTGTTGATGCAACCATAAAGTGATATTTAATAATTATTTATAATCAGCCAACCATATATTGATATCTCACAAAACAACCATAAGTTGATATTTTTGTGAATCGAGTATTTCAGCAAAACTACTGCAGTAAGAAAGTTACTTCGTGGTA | -7.71 ± 0.64 | -4.33 ± 0.31
23 | AATGTTGTTGATGCAACCATAAAGTGATATTTACAACCATATATTGATATCTCTCACAACCATAAGTTGATATTTTTGTGAATCGAGTATTTCAGCAAAACTACTGCAGTAAGAAAGTTACTTCGTGGTATGGGAGGATCAAGGAGCCAATA | -2.79 ± 0.97 | 3.04 ± 0.96
24 | AATGTTGTTGATGCAACCATAAAGTGATATTTAATAATTATTTATAATCAGCAACTTAACCACAAAACAACCATATATTGCGCGAGACACCCCACCAACGCCTGGTCGCGGGGGTGTCCGATCTGATTTCAGCAAAACTACTGCAGTAAGAA | -4.62 ± 1.1 | -2.63 ± 0.53
25 | TTTTGTGTTGAAACAACCATAAAGTGATAACAAATAATTATTTATAATCAGCAACTTAACCACAAAACAACCATATCTTGATATCGCATAAAACAACCATAAGTTGATATTTTGGTGAAAAGGATATTCCAACCTTCATAGTTTAGTAAGAA | -0.416 ± 0.29 | -1.23 ± 0.8
26 | AATGTTGTTGATGCACCCATAAATTGATAATTAATAATTATTTATAATCAGCAACTTAACCACAAAACACCCATAAATTGATAATTAACAAAAGTTGGTATTCAACTATAAAATGTGAATCGAGTATTTCAGCAAAACTACTGCAGTAAGAA | -2.87 ± 0.73 | -1.11 ± 1.5
27 | AATGTTGTTGATGCAACCATAAAGTGATATTTAATAACTTCGTATAGTATACATTATACGAAGTTATCAACCATATATTGATATCTCACAAAACAACCATAAGTTGATATTTTTGTGAATCGAGTATTTCAGCAAAACTACTGCAGTAAGAA | -2.92 ± 1 | -4.118 ± 0.013

From the supplement of paper PMC10201428
